Data as given in the Human Domainome abundance scans (Beltran et al. 2025).
± gives the uncertainty stated by the source.

Assay: abundance fitness (aPCA) (normalised: wild type 0, dead -1); higher = more abundant; growth selection in yeast, the domain comes from the species named
Conditions: Homo sapiens

**Q.** With “NEDD4-like E3 ubiquitin-protein ligase WWP2 F462P, O00308” as the substance, how does the abundance fitness read?
**A.** Its abundance fitness is -0.605 ± 0.099.

**Q.** Which abundance fitness does the source give for “NEDD4-like E3 ubiquitin-protein ligase WWP2 F462Q, O00308” here?
**A.** Its abundance fitness is -1.02 ± 0.16.

**Q.** For “NEDD4-like E3 ubiquitin-protein ligase WWP2 F462R, O00308”, which abundance fitness is on record?
**A.** The abundance fitness was -0.851 ± 0.046.

**Q.** Which abundance fitness does the source give for “NEDD4-like E3 ubiquitin-protein ligase WWP2 F462S, O00308” here?
**A.** The abundance fitness was -1.04 ± 0.051.

**Q.** With “NEDD4-like E3 ubiquitin-protein ligase WWP2 F462T, O00308” as the substance, how does the abundance fitness read?
**A.** The abundance fitness was -0.87 ± 0.16.

**Q.** Which abundance fitness does the source give for “NEDD4-like E3 ubiquitin-protein ligase WWP2 F462V, O00308” here?
**A.** The abundance fitness was -0.939 ± 0.037.

**Q.** For “NEDD4-like E3 ubiquitin-protein ligase WWP2 F462W, O00308”, which abundance fitness is on record?
**A.** The abundance fitness was -0.152 ± 0.066.

**Q.** Which abundance fitness does the source give for “NEDD4-like E3 ubiquitin-protein ligase WWP2 F462Y, O00308” here?
**A.** Its abundance fitness is -0.048 ± 0.081.

**Q.** For “NEDD4-like E3 ubiquitin-protein ligase WWP2 F472A, O00308”, which abundance fitness is on record?
**A.** The abundance fitness was -0.373 ± 0.052.

**Q.** Which abundance fitness does the source give for “NEDD4-like E3 ubiquitin-protein ligase WWP2 F472C, O00308” here?
**A.** The abundance fitness was -0.48 ± 0.067.

**Q.** With “NEDD4-like E3 ubiquitin-protein ligase WWP2 F472D, O00308” as the substance, how does the abundance fitness read?
**A.** Its abundance fitness is -0.319 ± 0.072.

**Q.** With “NEDD4-like E3 ubiquitin-protein ligase WWP2 F472E, O00308” as the substance, how does the abundance fitness read?
**A.** Its abundance fitness is -0.357 ± 0.061.

**Q.** For “NEDD4-like E3 ubiquitin-protein ligase WWP2 F472H, O00308”, which abundance fitness is on record?
**A.** Its abundance fitness is -0.291 ± 0.033.

**Q.** Which abundance fitness does the source give for “NEDD4-like E3 ubiquitin-protein ligase WWP2 F472I, O00308” here?
**A.** Its abundance fitness is -0.495 ± 0.082.

**Q.** For “NEDD4-like E3 ubiquitin-protein ligase WWP2 F472K, O00308”, which abundance fitness is on record?
**A.** The abundance fitness was -0.355 ± 0.07.

**Q.** For “NEDD4-like E3 ubiquitin-protein ligase WWP2 F472L, O00308”, which abundance fitness is on record?
**A.** Its abundance fitness is -0.289 ± 0.052.

**Q.** Which abundance fitness does the source give for “NEDD4-like E3 ubiquitin-protein ligase WWP2 F472N, O00308” here?
**A.** The abundance fitness was -0.373 ± 0.053.

**Q.** Which abundance fitness does the source give for “NEDD4-like E3 ubiquitin-protein ligase WWP2 F472Q, O00308” here?
**A.** The abundance fitness was -0.402 ± 0.045.

**Q.** With “NEDD4-like E3 ubiquitin-protein ligase WWP2 F472S, O00308” as the substance, how does the abundance fitness read?
**A.** The abundance fitness was -0.351 ± 0.048.

**Q.** For “NEDD4-like E3 ubiquitin-protein ligase WWP2 F472T, O00308”, which abundance fitness is on record?
**A.** Its abundance fitness is -0.15 ± 0.065.

**Q.** For “NEDD4-like E3 ubiquitin-protein ligase WWP2 F472V, O00308”, which abundance fitness is on record?
**A.** The abundance fitness was -0.392 ± 0.044.

**Q.** Which abundance fitness does the source give for “NEDD4-like E3 ubiquitin-protein ligase WWP2 F472W, O00308” here?
**A.** The abundance fitness was -0.129 ± 0.05.

**Q.** For “NEDD4-like E3 ubiquitin-protein ligase WWP2 F472Y, O00308”, which abundance fitness is on record?
**A.** Its abundance fitness is -0.025 ± 0.057.

**Q.** With “NEDD4-like E3 ubiquitin-protein ligase WWP2 F479C, O00308” as the substance, how does the abundance fitness read?
**A.** The abundance fitness was -0.054 ± 0.046.

**Q.** With “NEDD4-like E3 ubiquitin-protein ligase WWP2 F479D, O00308” as the substance, how does the abundance fitness read?
**A.** Its abundance fitness is 0.02 ± 0.072.

**Q.** With “NEDD4-like E3 ubiquitin-protein ligase WWP2 F479E, O00308” as the substance, how does the abundance fitness read?
**A.** Its abundance fitness is 0.027 ± 0.049.

**Q.** Which abundance fitness does the source give for “NEDD4-like E3 ubiquitin-protein ligase WWP2 F479G, O00308” here?
**A.** The abundance fitness was 0.017 ± 0.04.

**Q.** For “NEDD4-like E3 ubiquitin-protein ligase WWP2 F479H, O00308”, which abundance fitness is on record?
**A.** Its abundance fitness is -0.036 ± 0.083.

**Q.** With “NEDD4-like E3 ubiquitin-protein ligase WWP2 F479I, O00308” as the substance, how does the abundance fitness read?
**A.** Its abundance fitness is -0.086 ± 0.07.

**Q.** With “NEDD4-like E3 ubiquitin-protein ligase WWP2 F479K, O00308” as the substance, how does the abundance fitness read?
**A.** Its abundance fitness is -0.015 ± 0.051.

**Q.** For “NEDD4-like E3 ubiquitin-protein ligase WWP2 F479L, O00308”, which abundance fitness is on record?
**A.** The abundance fitness was -0.054 ± 0.049.

**Q.** Which abundance fitness does the source give for “NEDD4-like E3 ubiquitin-protein ligase WWP2 F479P, O00308” here?
**A.** Its abundance fitness is -0.003 ± 0.054.

**Q.** Which abundance fitness does the source give for “NEDD4-like E3 ubiquitin-protein ligase WWP2 F479Q, O00308” here?
**A.** The abundance fitness was -0.082 ± 0.053.

**Q.** With “NEDD4-like E3 ubiquitin-protein ligase WWP2 F479R, O00308” as the substance, how does the abundance fitness read?
**A.** Its abundance fitness is -0.046 ± 0.049.

**Q.** Which abundance fitness does the source give for “NEDD4-like E3 ubiquitin-protein ligase WWP2 F479S, O00308” here?
**A.** The abundance fitness was -0.013 ± 0.042.

**Q.** With “NEDD4-like E3 ubiquitin-protein ligase WWP2 F479T, O00308” as the substance, how does the abundance fitness read?
**A.** The abundance fitness was 0.025 ± 0.061.

**Q.** Which abundance fitness does the source give for “NEDD4-like E3 ubiquitin-protein ligase WWP2 F479V, O00308” here?
**A.** The abundance fitness was -0.004 ± 0.04.

**Q.** Which abundance fitness does the source give for “NEDD4-like E3 ubiquitin-protein ligase WWP2 F479W, O00308” here?
**A.** The abundance fitness was -0.103 ± 0.058.

**Q.** Which abundance fitness does the source give for “NEDD4-like E3 ubiquitin-protein ligase WWP2 F479Y, O00308” here?
**A.** Its abundance fitness is -0.18 ± 0.08.

**Q.** For “NEDD4-like E3 ubiquitin-protein ligase WWP2 G449A, O00308”, which abundance fitness is on record?
**A.** Its abundance fitness is -0.269 ± 0.049.

**Q.** Which abundance fitness does the source give for “NEDD4-like E3 ubiquitin-protein ligase WWP2 G449C, O00308” here?
**A.** The abundance fitness was -0.668 ± 0.076.

**Q.** For “NEDD4-like E3 ubiquitin-protein ligase WWP2 G449D, O00308”, which abundance fitness is on record?
**A.** Its abundance fitness is -0.127 ± 0.044.

**Q.** Which abundance fitness does the source give for “NEDD4-like E3 ubiquitin-protein ligase WWP2 G449E, O00308” here?
**A.** The abundance fitness was -0.167 ± 0.053.

**Q.** For “NEDD4-like E3 ubiquitin-protein ligase WWP2 G449F, O00308”, which abundance fitness is on record?
**A.** The abundance fitness was -0.163 ± 0.052.

**Q.** With “NEDD4-like E3 ubiquitin-protein ligase WWP2 G449H, O00308” as the substance, how does the abundance fitness read?
**A.** Its abundance fitness is -0.274 ± 0.087.

**Q.** For “NEDD4-like E3 ubiquitin-protein ligase WWP2 G449I, O00308”, which abundance fitness is on record?
**A.** The abundance fitness was -1.09 ± 0.18.

**Q.** Which abundance fitness does the source give for “NEDD4-like E3 ubiquitin-protein ligase WWP2 G449L, O00308” here?
**A.** The abundance fitness was -0.174 ± 0.038.

**Q.** Which abundance fitness does the source give for “NEDD4-like E3 ubiquitin-protein ligase WWP2 G449M, O00308” here?
**A.** The abundance fitness was -0.11 ± 0.042.

**Q.** With “NEDD4-like E3 ubiquitin-protein ligase WWP2 G449N, O00308” as the substance, how does the abundance fitness read?
**A.** The abundance fitness was 0.119 ± 0.065.

**Q.** With “NEDD4-like E3 ubiquitin-protein ligase WWP2 G449P, O00308” as the substance, how does the abundance fitness read?
**A.** Its abundance fitness is -0.937 ± 0.11.

**Q.** Which abundance fitness does the source give for “NEDD4-like E3 ubiquitin-protein ligase WWP2 G449Q, O00308” here?
**A.** Its abundance fitness is -0.107 ± 0.064.

**Q.** With “NEDD4-like E3 ubiquitin-protein ligase WWP2 G449R, O00308” as the substance, how does the abundance fitness read?
**A.** Its abundance fitness is -0.14 ± 0.047.

**Q.** Which abundance fitness does the source give for “NEDD4-like E3 ubiquitin-protein ligase WWP2 G449S, O00308” here?
**A.** Its abundance fitness is -0.17 ± 0.029.

**Q.** With “NEDD4-like E3 ubiquitin-protein ligase WWP2 G449V, O00308” as the substance, how does the abundance fitness read?
**A.** The abundance fitness was -0.679 ± 0.035.

**Q.** With “NEDD4-like E3 ubiquitin-protein ligase WWP2 G449W, O00308” as the substance, how does the abundance fitness read?
**A.** Its abundance fitness is -0.283 ± 0.053.

**Q.** For “NEDD4-like E3 ubiquitin-protein ligase WWP2 G449Y, O00308”, which abundance fitness is on record?
**A.** The abundance fitness was -0.205 ± 0.067.

**Q.** With “NEDD4-like E3 ubiquitin-protein ligase WWP2 G458A, O00308” as the substance, how does the abundance fitness read?
**A.** The abundance fitness was -0.202 ± 0.059.

**Q.** With “NEDD4-like E3 ubiquitin-protein ligase WWP2 G458C, O00308” as the substance, how does the abundance fitness read?
**A.** The abundance fitness was -0.193 ± 0.051.

**Q.** For “NEDD4-like E3 ubiquitin-protein ligase WWP2 G458D, O00308”, which abundance fitness is on record?
**A.** The abundance fitness was -0.343 ± 0.079.

**Q.** For “NEDD4-like E3 ubiquitin-protein ligase WWP2 G458E, O00308”, which abundance fitness is on record?
**A.** Its abundance fitness is -0.367 ± 0.063.

**Q.** With “NEDD4-like E3 ubiquitin-protein ligase WWP2 G458F, O00308” as the substance, how does the abundance fitness read?
**A.** The abundance fitness was -0.539 ± 0.1.

**Q.** For “NEDD4-like E3 ubiquitin-protein ligase WWP2 G458H, O00308”, which abundance fitness is on record?
**A.** Its abundance fitness is -0.234 ± 0.068.

**Q.** Which abundance fitness does the source give for “NEDD4-like E3 ubiquitin-protein ligase WWP2 G458I, O00308” here?
**A.** The abundance fitness was -1.18 ± 0.19.

**Q.** For “NEDD4-like E3 ubiquitin-protein ligase WWP2 G458K, O00308”, which abundance fitness is on record?
**A.** Its abundance fitness is -0.049 ± 0.045.
